Measured values reported in article PMC11984658 (Journal of structural biology, 2024).

B1: RAD52(1–212) (domain or fragment, human, UniProt P43351 1-212, looked up)
chain: MSGTEEAILGGRDSHPAAGGGSVLCFGQCQYTAEEYQAIQKALRQRLGPEYISSRMAGGGQKVCYIEGHRVINLANEMFGYNGWAHSITQQNVDFVDLNNGKFYVGVCAFVRVQLKDGSYHEDVGYGVSEGLKSKALSLEKARKEAVTDGLKRALRSFGNALGNCILDKDYLRSLNKLPRQLPLEVDLTKAKRQDLEPSVEEARYNSCRPNM
B2: RAD52(1–303) (domain or fragment, human, UniProt P43351 1-303, looked up)
chain: MSGTEEAILGGRDSHPAAGGGSVLCFGQCQYTAEEYQAIQKALRQRLGPEYISSRMAGGGQKVCYIEGHRVINLANEMFGYNGWAHSITQQNVDFVDLNNGKFYVGVCAFVRVQLKDGSYHEDVGYGVSEGLKSKALSLEKARKEAVTDGLKRALRSFGNALGNCILDKDYLRSLNKLPRQLPLEVDLTKAKRQDLEPSVEEARYNSCRPNMALGHPQLQQVTSPSRPSHAVIPADQDCSSRSLSSSAVESEATHQRKLRQKQLQQQFRERMEKQQVRVSTPSAEKSEAAPPAPPVTHSTPVT

Legend:
[1] = molecular target: the molecule itself; assay: SAXS
[2] = molecular target: the molecule itself; assay: SEC-MALS

Row | Protein | stoichiometry N [1] | stoichiometry N [2]
1 | B1 | 10 subunits | 9.7 subunits
2 | B2 |  | 9.5 subunits
